Measured values published in patent US20190248900A1 (Y BIOLOGICS, published 2019).

How the values were obtained:
[1] = molecular target: T1, M2; assay: scFv-phage ELISA
T1 construct: also called PD1 mutant M2

[2] = molecular target: T2, M2-1; assay: scFv-phage ELISA
T2 construct: also called PD1 mutant M2-1

[3] = molecular target: T3, M2-2; assay: scFv-phage ELISA
T3 construct: also called PD1 mutant M2-2

[4] = molecular target: T4, M3; assay: scFv-phage ELISA
T4 construct: also called PD1 mutant M3

[5] = molecular target: T5, M4; assay: scFv-phage ELISA
T5 construct: also called PD1 mutant M4

[6] = molecular target: T6, M11; assay: scFv-phage ELISA
T6 construct: also called PD1 mutant M11

[7] = molecular target: T7, M5; assay: scFv-phage ELISA
T7 construct: also called PD1 mutant M5

[8] = molecular target: T8, M5-1; assay: scFv-phage ELISA
T8 construct: also called PD1 mutant M5-1

[9] = molecular target: T9, M5-2; assay: scFv-phage ELISA
T9 construct: also called PD1 mutant M5-2

[10] = molecular target: T10, M6; assay: scFv-phage ELISA
T10 construct: also called PD1 mutant M6

[11] = molecular target: T11, M12; assay: scFv-phage ELISA
T11 construct: also called PD1 mutant M12

[12] = molecular target: T12, M13; assay: scFv-phage ELISA
T12 construct: also called PD1 mutant M13

[13] = molecular target: T13, M14; assay: scFv-phage ELISA
T13 construct: also called PD1 mutant M14

[14] = molecular target: T14, M7; assay: scFv-phage ELISA
T14 construct: also called PD1 mutant M7

[15] = molecular target: T15, M7-1; assay: scFv-phage ELISA
T15 construct: also called PD1 mutant M7-1

[16] = molecular target: T16, M7-2; assay: scFv-phage ELISA
T16 construct: also called PD1 mutant M7-2

[17] = molecular target: T17, M8; assay: scFv-phage ELISA
T17 construct: also called PD1 mutant M8

[18] = molecular target: T18, M9; assay: scFv-phage ELISA
T18 construct: also called PD1 mutant M9

[19] = molecular target: T19, M10; assay: scFv-phage ELISA
T19 construct: also called PD1 mutant M10

[20] = molecular target: T20, ITGA6-Fc; assay: scFv-phage ELISA
T20 construct: Fc fusion
T20 sequence (P23229 whole entry, species assumed, looked up): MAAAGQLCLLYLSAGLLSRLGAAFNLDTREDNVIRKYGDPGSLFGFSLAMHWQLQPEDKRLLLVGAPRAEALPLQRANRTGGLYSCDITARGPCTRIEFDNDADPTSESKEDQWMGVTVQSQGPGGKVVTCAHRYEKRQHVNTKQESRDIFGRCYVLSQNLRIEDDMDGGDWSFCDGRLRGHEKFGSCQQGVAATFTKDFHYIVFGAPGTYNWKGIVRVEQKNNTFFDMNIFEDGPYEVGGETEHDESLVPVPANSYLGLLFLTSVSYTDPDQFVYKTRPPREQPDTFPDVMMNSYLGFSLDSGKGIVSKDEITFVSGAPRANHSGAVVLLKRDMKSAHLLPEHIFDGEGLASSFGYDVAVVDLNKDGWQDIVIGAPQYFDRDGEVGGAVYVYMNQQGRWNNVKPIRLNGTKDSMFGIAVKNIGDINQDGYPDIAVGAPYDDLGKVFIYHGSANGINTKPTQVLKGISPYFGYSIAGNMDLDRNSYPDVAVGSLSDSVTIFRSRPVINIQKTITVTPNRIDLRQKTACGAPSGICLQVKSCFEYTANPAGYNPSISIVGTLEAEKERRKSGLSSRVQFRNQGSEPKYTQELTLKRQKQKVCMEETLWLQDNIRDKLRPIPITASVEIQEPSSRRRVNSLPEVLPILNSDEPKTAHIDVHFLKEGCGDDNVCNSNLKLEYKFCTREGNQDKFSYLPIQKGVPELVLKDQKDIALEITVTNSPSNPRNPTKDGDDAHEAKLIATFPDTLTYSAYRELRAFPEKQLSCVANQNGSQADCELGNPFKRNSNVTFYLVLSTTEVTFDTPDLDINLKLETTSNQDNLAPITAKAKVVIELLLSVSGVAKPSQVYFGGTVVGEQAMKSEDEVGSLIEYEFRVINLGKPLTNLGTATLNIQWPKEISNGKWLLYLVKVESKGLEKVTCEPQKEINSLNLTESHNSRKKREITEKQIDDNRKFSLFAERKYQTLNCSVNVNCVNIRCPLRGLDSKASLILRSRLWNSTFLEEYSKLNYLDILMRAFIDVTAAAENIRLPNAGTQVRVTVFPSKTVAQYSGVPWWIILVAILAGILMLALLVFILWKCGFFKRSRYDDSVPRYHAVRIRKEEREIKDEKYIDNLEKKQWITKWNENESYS

[21] = molecular target: T21, M1; assay: scFv-phage ELISA
T21 construct: also called PD1 mutant M1

[22] = molecular target: T22, M1-1; assay: scFv-phage ELISA
T22 construct: also called PD1 mutant M1-1

[23] = molecular target: T23, M1-2; assay: scFv-phage ELISA
T23 construct: also called PD1 mutant M1-2

[24] = molecular target: T24, antigen PD1 (coated, construct not stated) (UniProt Q15116 25-170, limits assumed); assay: scFv-phage ELISA
T24 construct: also called PD1 antigen; PDCD1
T24 sequence (Q15116 25-170 limits assumed): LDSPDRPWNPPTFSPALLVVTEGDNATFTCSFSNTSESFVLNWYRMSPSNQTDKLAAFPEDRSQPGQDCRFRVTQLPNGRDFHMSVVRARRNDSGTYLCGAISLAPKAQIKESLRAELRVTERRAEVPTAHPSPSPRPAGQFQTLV

[25] = molecular target: human PD-1 (NM_005018.2) over-expressed on cells (human, UniProt Q15116 25-288); assay: cell-based or functional assay
human PD-1 (NM_005018.2) over-expressed on cells, sequence (Q15116 25-288): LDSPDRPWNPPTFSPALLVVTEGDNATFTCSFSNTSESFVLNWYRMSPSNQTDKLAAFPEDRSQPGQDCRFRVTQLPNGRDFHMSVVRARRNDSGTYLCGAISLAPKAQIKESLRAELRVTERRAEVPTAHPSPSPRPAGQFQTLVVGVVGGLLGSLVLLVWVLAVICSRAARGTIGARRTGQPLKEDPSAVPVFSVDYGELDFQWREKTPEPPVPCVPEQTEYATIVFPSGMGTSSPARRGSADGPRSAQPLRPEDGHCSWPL

B1: PD1-45F1 (antibody, V domains shown)
VH: QVQLVQSGAEVKKPGASVKLSCKASGYTFNSYYVHWVRQAPGQGLEWMGIINPSDGSATYAQKFQGRVTMTSDTSTSSVYMELSSLRSEDTAVYYCARDGNYYDSRGYYYDTFDMWGQGTLITVSS
VL: SYELTQDPAVSVALGQTVRITCQGDSLRTYYASWYQQKPGQAPILVIYGKNNRPSGIPDRFSGSSSGNTASLTITAAQAEDEADYYCNSRDSSGKSLVFGGGTKLTVL
notes: scFv-phage in the screening ELISA; later whole IgG
OD490 [1]: 3.8 | OD490 [2]: 3.9 | OD490 [3]: 4 | OD490 [4]: 3.8 | OD490 [5]: 3.9 | OD490 [6]: 3.8 | OD490 [7]: 3.8 | OD490 [8]: 3.9 | OD490 [9]: 3.9 | OD490 [10]: 4 | OD490 [11]: 0.4 | OD490 [12]: 2.2 | OD490 [13]: 3.8 | OD490 [14]: 3.8 | OD490 [15]: 3.9 | OD490 [16]: 3.9 | OD490 [17]: 3.9 | OD490 [18]: 3.8 | OD490 [19]: 3.9 | OD490 [20]: 0.1 | OD490 [21]: 3.9 | OD490 [22]: 3.9 | OD490 [23]: 3.9 | OD490 [24]: 4

B2: PD1-45F4 (antibody, V domains shown)
VH: QMQLVESGGGLVQPGRSLRLSCAASGFTFDDYAMHWVRQAPGQGLEWVSGISWNSNNIKYADSVKGRFTISRDNSKNSLYLQMNSLRAEDTAVYYCARGALTPLDVWGQGTPVTVSS
VL: SYELTQAPSLSVSPGQTANIICSGDNLRTKYVSWYQQKPGQSPLLVIYQDTRRPSGIPARFSGSNSGNTATLTISGTQTRDESTYYCMTWDVDTTSMIFGGGTKLTVL
notes: as for B1
OD490 [1]: 2.9 | OD490 [2]: 3 | OD490 [3]: 2.5 | OD490 [4]: 3.7 | OD490 [5]: 2.7 | OD490 [6]: 0.3 | OD490 [7]: 0.1 | OD490 [8]: 0.1 | OD490 [9]: 3.1 | OD490 [10]: 3.7 | OD490 [11]: 3.7 | OD490 [12]: 3.5 | OD490 [13]: 1.8 | OD490 [14]: 3.5 | OD490 [15]: 3.5 | OD490 [16]: 3.4 | OD490 [17]: 3.6 | OD490 [18]: 3.3 | OD490 [19]: 3.3 | OD490 [20]: 0.1 | OD490 [21]: 2.6 | OD490 [22]: 2.5 | OD490 [23]: 3.6 | OD490 [24]: 3.8

B3: PD1-48A9 (antibody, V domains shown)
VH: QMQLVQSGAEVKKPGSSVKVSCKASGDTFTRYIINWVRQAPGQGLEWMGRVIPTLGLTTYAQNFQDTVTIIADKSTNTAYMELKNLRSEDTAVYYCARGYGSGAFDIWGQGTMITVSS
VL: DIVMTQTPLSLPVTPGEPASISCRSSQSLLDSHDGNTYLDWYLQKPGQSPQLLIYTLSHRASGVPDRFSGSGSGTDFTLKISRVEAEDVGLYYCMQRIDFPYTFGQGTKVEIK
notes: scFv-phage in the screening ELISA; whole IgG in the other assays
EC50 [nM], PD1/PD-L1 blockade bioassay [25]: 8.64 nM | OD490 [1]: 0.3 | OD490 [2]: 3.8 | OD490 [3]: 3.9 | OD490 [4]: 2 | OD490 [5]: 3.9 | OD490 [6]: 0.3 | OD490 [7]: 1.3 | OD490 [8]: 0.6 | OD490 [9]: 3.9 | OD490 [10]: 3.9 | OD490 [11]: 3.9 | OD490 [12]: 4 | OD490 [13]: 4 | OD490 [14]: 0.3 | OD490 [15]: 0.4 | OD490 [16]: 0.4 | OD490 [17]: 1.7 | OD490 [18]: 3.9 | OD490 [19]: 3.8 | OD490 [20]: 0.3 | OD490 [21]: 3.7 | OD490 [22]: 3.8 | OD490 [23]: 3.9 | OD490 [24]: 2.1

B4: PD1-49B9 (antibody, V domains shown)
VH: QMQLVESGGGLVQPGRSLRLSCAASGFTFEDYAMHWVRQPPGKGLEWVSSISWNSHNIAYADSVKGRFTISRDNSKNSLYLQMNSLRAEDTAVYYCSTSGLGVHAWGQGTMVTVSS
VL: QSALTQPPSASGSPGQSVTISCTGTSSDVGGYNYVSWYQQHPGKAPKLMIYEVSKRPSGVPDRFSGSKSGNTASLTVSGLQPEDEADYYCSSFARNSNYVFGTGTKVTVL
notes: as for B1
OD490 [1]: 3.9 | OD490 [2]: 3.8 | OD490 [3]: 3.9 | OD490 [4]: 3.9 | OD490 [5]: 3.8 | OD490 [6]: 1.4 | OD490 [7]: 3.9 | OD490 [8]: 3.9 | OD490 [9]: 4 | OD490 [10]: 3.9 | OD490 [11]: 3.9 | OD490 [12]: 3.9 | OD490 [13]: 3.9 | OD490 [14]: 3.9 | OD490 [15]: 3.9 | OD490 [16]: 3.9 | OD490 [17]: 4 | OD490 [18]: 3.9 | OD490 [19]: 3.9 | OD490 [20]: 0.3 | OD490 [21]: 3.9 | OD490 [22]: 3.8 | OD490 [23]: 3.9 | OD490 [24]: 3.9
